Source: publication PMC7398557 (Nature, 2020)

Biological target: the molecule itself
Test: cryo-EM structure

B1: human acyl-CoA:diacylglycerol acyltransferase 1 (DGAT1) (enzyme)
chain: MGDRGSSRRRRTGSRPSSHGGGGPAAAEEEVRDAAAGPDVGAAGDAPAPAPNKDGDAGVGSGHWELRCHRLQDSLFSSDSGFSNYRGILNWCVVMLILSNARLFLENLIKYGILVDPIQVVSLFLKDPYSWPAPCLVIAANVFAVAAFQVEKRLAVGALTEQAGLLLHVANLATILCFPAAVVLLVESITPVGSLLALMAHTILFLKLFSYRDVNSWCRRARAKAASAGKKASSAAAPHTVSYPDNLTYRDLYYFLFAPTLCYELNFPRSPRIRKRFLLRRILEMLFFTQLQVGLIQQWMVPTIQNSMKPFKDMDYSRIIERLLKLAVPNHLIWLIFFYWLFHSCLNAVAELMQFGDREFYRDWWNSESVTYFWQNWNIPVHKWCIRHFYKPMLRRGSSKWMARTGVFLASAFFHEYLVSVPLRMFRLWAFTGMMAQIPLAWFVGRFFQGNYGNAAVWLSLIIGQPIAVLMYVHDYYVLNYEAPAAEA
  stoichiometry N: 2
